Details: for Tm / change of melting temperature, mutant - wild type (higher = more stable): Salmo salar, pH 7.1, Thermal, HEPES 10 mM, NaCl MgCl2 30 mM 3mM
[1] = Homo sapiens, pH 7.4, 25 °C, GdnHCl, CD, PBS, structure 1TIT
[2] = Mus musculus, pH 6.88, 5 °C, Pressure, NMR, Tris 20 mM, reversible: yes, structure 1MBG

Transcriptional activator Myb V103L, P06876, sequence (P06876 whole entry V103L): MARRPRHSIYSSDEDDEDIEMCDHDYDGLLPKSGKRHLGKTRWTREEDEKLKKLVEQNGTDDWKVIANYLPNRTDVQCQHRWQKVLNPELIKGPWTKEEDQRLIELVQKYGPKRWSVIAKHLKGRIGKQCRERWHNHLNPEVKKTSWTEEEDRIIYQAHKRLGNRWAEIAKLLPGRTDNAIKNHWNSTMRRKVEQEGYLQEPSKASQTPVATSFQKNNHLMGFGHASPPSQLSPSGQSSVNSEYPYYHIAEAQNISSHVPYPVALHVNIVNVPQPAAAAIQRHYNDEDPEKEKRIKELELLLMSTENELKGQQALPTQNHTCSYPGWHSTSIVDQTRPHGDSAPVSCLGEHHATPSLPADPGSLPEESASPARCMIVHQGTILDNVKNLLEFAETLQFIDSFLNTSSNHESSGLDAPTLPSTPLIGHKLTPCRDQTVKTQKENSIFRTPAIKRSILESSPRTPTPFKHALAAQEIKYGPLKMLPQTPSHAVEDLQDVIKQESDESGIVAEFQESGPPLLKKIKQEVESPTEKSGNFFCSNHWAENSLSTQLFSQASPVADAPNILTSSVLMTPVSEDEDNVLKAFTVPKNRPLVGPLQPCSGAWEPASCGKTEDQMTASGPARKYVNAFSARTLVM
Tropomyosin alpha-1 chain G24A|G27A, Q91472 G24A G27A, sequence (Q91472 entry or part of it G24A|G27A | G24A G27A): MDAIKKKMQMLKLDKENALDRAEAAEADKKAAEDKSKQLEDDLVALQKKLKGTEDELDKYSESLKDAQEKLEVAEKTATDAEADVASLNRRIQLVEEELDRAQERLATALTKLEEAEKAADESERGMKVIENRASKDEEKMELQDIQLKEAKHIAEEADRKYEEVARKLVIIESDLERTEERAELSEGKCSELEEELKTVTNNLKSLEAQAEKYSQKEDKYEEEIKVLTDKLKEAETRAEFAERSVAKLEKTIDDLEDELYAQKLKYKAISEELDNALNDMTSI
Tropomyosin alpha-1 chain G27A, Q91472, sequence (Q91472 entry or part of it G27A | G27A): as the sequence (Q91472 entry or part of it G24A|G27A | G24A G27A) above, with A24G counted along it
Tropomyosin alpha-1 chain G24A, Q91472, sequence (Q91472 entry or part of it G24A | G24A): as the sequence (Q91472 entry or part of it G24A|G27A | G24A G27A) above, with A27G counted along it
Tropomyosin alpha-1 chain wild type, Q91472, sequence (Q91472 entry or part of it): as the sequence (Q91472 entry or part of it G24A|G27A | G24A G27A) above, with A24G, A27G counted along it

Substance	Tm (CD)	change of melting temperature, mutant - wild type (higher = more stable) (CD)	also measured
Titin V12689A, Q8WZ42			ddG of mutation (higher = less stable) [1]: 2.37 kcal/mol
Titin V12762A, Q8WZ42			ddG of mutation (higher = less stable) [1]: 4.78 kcal/mol
Transcriptional activator Myb V103L, P06876			ddG of mutation (higher = less stable) [2]: -0.48 kcal/mol; unfolding free energy [2]: 1.75 kcal/mol
Tropomyosin alpha-1 chain G24A, Q91472	36.9 °C	-0.1 °C	
Tropomyosin alpha-1 chain G24A|G27A, Q91472 G24A G27A	38.1 °C	1.1 °C	
Tropomyosin alpha-1 chain G27A, Q91472	37.3 °C	0.3 °C	
Tropomyosin alpha-1 chain wild type, Q91472	37 °C		
Twitchin, Q23551 Y4220F			ddG of mutation (higher = less stable) (Caenorhabditis elegans, pH 7, 20 °C, Urea, Fluorescence, Sodium phosphate 50 mM, reversible: yes, structure 1WIT): -2.15 kcal/mol

From FireProtDB
